Results from ChEMBL document CHEMBL1123043, “Effects of charge, volume, and surface on binding of inhibitor and substrate moieties to acetylcholinesterase” (J Med Chem, 1985).

How the values were obtained:
[1] = substrate: CC(=O)CCC[N+](C)(C)[O-]
Description: (§1) Compound was evaluated for reversible inhibition of hydrolysis acetylcholine by acetylcholinesterase and represented as Km(app) apparent binding constant

[2] = substrate: C[S+](C)CCO
Description: as §1

[3] = substrate: CC(=O)OCCS(C)(=O)=O
Description: as §1

[4] = substrate: CSCCO
Description: as §1

[5] = substrate: CC(C)(C)CCO
Description: as §1

[6] = substrate: C[N+](C)(C)CCO
Description: as §1

[7] = substrate: C[Si](C)(C)CCO
Description: as §1

[8] = substrate: CS(=O)(=O)CCO
Description: as §1

[9] = substrate: CCCCO
Description: as §1

[10] = substrate: CN(C)C
Description: as §1
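Further: apparent binding constant Km(app) for reversible inhibition of acetylcholine hydrolysis catalysed by acetylcholinesterase.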

B1: Choline O-acetyltransferase (Rattus norvegicus), P32738 (protein)
chain: MPILEKAPQKMPVKASSWEELDLPKLPVPPLQQTLATYLQCMQHLVPEEQFRKSQAIVKRFGAPGGLGETLQEKLLERQEKTANWVSEYWLNDMYLNNRLALPVNSSPAVIFARQHFQDTNDQLRFAACLISGVLSYKTLLDSHSLPTDWAKGQLSGQPLCMKQYYRLFSSYRLPGHTQDTLVAQKSSIMPEPEHVIVACCNQFFVLDVVINFRRLSEGDLFTQLRKIVKMASNEDERLPPIGLLTSDGRSEWAKARTVLLKDSTNRDSLDMIERCICLVCLDGPGTGELSDTHRALQLLHGGGCSLNGANRWYDKSLQFVVGRDGTCGVVCEHSPFDGIVLVQCTEHLLKHMMTSNKKLVRADSVSELPAPRRLRLKCSPETQGHLASSAEKLQRIVKNLDFIVYKFDNYGKTFIKKQKYSPDGFIQVALQLAYYRLYQRLVPTYESASIRRFQEGRVDNIRSATPEALAFVQAMTDHKAAMPASEKLQLLQTAMQAHKQYTVMAITGMAIDNHLLALRELARDLCKEPPEMFMDETYLMSNRFVLSTSQVPTTMEMFCCYGPVVPNGNGACYNPQPEAITFCISSFHSCKETSSVEFAEAVGASLVDMRDLCSSRQPADSKPPAPKEKARGPSQAKQS
B1 gave a Km [1] of 18 mM, a Km [2] of 0.33 mM and a Km [3] of 6.2 mM. It also gave a Km [4] of 15 mM, a Km [5] of 5.3 mM and a Km [6] of 0.33 mM. For the same protein, the Km [7] was 3.5 mM, the Km [8] was 6.2 mM and the Km [9] was 13 mM. The Km [10] was 18 mM.
